Experimental data: patent US20230348603A1 (VERSEAU THERAPEUTICS, published 2023)
Numbering of substitutions follows the chain as printed. Names may count otherwise. Blank lines part the entries; values can stand above or below the binder they belong to.

How the values were obtained:
[1] = biological target: T1, Cynomolgus Monkey VSIG4-L-His (cynomolgus monkey); assay: BLI, IgG on AHC sensor, antigen 100 nM
T1 construct: ECD with His tag; also called cyVSIG4-L; cyno VSIG4-L-His
T1 chain: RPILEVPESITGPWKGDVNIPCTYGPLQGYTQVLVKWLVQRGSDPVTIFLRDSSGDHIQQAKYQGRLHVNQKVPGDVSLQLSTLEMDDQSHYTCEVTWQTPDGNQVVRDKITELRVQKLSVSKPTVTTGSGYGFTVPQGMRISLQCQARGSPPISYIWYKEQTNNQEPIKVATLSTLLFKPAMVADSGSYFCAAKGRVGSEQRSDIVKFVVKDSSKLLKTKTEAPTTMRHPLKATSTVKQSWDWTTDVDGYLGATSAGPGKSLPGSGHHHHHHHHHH
Experimental: (§1) The binding affinity of chimeric antibodies was determined by biolayer interferometry (BLI), using a ForteBio Octet® Red384 system. […] Biosensors were rehydrated prior to the assay in kinetics buffer for 10 minutes and then equilibrated in kinetics buffer for 60 seconds. Antibody was then immobilized for 300 seconds followed by a 120 second baseline wash in fresh kinetics buffer, 300 second analyte association, and 300 second dissociation in the same buffer wells as the baseline wash step. All assay steps occurred at 30° C. with an acquisition rate of 5.0 Hz
(§2) The binding affinity of humanized antibodies and the parental chimeric antibodies was determined by biolayer interferometry (BLI), using a ForteBio Octet® Red384 system, as described above.

[2] = biological target: T2, Human VSIG4-L-His (human, UniProt Q9Y279 20-283); assay: BLI, IgG on AHC sensor, antigen 100 nM
T2 construct: long isoform ECD with His tag; also called hVSIG4-L
T2 sequence: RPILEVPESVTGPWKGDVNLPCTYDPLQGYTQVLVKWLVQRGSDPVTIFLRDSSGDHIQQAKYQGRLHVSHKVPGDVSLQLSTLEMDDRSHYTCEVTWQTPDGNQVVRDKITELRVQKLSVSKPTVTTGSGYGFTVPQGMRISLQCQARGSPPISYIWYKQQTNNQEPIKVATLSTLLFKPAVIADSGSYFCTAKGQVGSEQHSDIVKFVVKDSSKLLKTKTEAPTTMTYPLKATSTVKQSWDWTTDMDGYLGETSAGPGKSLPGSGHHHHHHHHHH
Experimental: as §1, §2

KD relative to parental chimera [1]: 1.2 fold
KD relative to parental chimera [2]: 1.1 fold
B1: h12A12.D humanized IgG4 (S228P) kappa (antibody, V domains shown)
VH: QVQMVQSGSELKKPGASVKVSCKASGYTFTNYWMHWVRQAPGQGLEWMGYINPSTGYTDYNQGFTGRFVFSADKSVSTAYLQISSLKAEDTAVYYCIRGSDYYGRDYWGQGTTVTVSS
VL: EIVMTQSPATLSLSPGERATLSCRASQDISNYLNWYQQKPGQALRLLIYYTSRRHTGIPARFSGSGSGTDYTLTISSLEPEDFAVYYCRQGNTLPWTFGGGTKLEIKR

KD relative to parental chimera [1]: 3.7 fold
KD relative to parental chimera [2]: 1.2 fold
B2: h13H11.C humanized IgG4 (S228P) kappa (antibody, V domains shown)
VH: QIQLVQSGSELKKPGASVKVSCKASGYTFENFGMNWVRQAPGQGLEWMGWINTYTGEATYADGFTGRFVFSLDTSVSTAYLQISSLKAEDTAVYYCARDGGFRHFDVWGQGTTVTVSS
VL: DTQVTQSPSSLSASVGDRVTITCQTSTDIDDDMNWYQQKPGKAPKLLISEGNTLRTGVPSRFSSSGSGTDFTFTISSLQPEDIATYYCLQSDNLPLTFGGGTKLEIKR

KD relative to parental chimera [1]: 0.9 fold
KD relative to parental chimera [2]: 2.5 fold
B3: h13H11.B humanized IgG4 (S228P) kappa (antibody, V domains shown)
VH: QIQLVQSGAEVKKPGASVKVSCKASGYTFENFGMNWVRQAPGQRLEWMGWINTYTGEATYADKFQGRVTFTLDTSASTAYMELSSLRSEDTAVYFCARDGGFRHFDVWGQGTTVTVSS
VL: B2 VL with D1E, T56P, S67Y

KD relative to parental chimera [1]: 0.9 fold
KD relative to parental chimera [2]: 1.2 fold
B4: h13H11.G humanized IgG4 (S228P) kappa (antibody, V domains shown)
VH: B2 VH with G63D, T65K
VL: B2 VL

KD relative to parental chimera [1]: 1.7 fold
KD relative to parental chimera [2]: 0.8 fold
B5: h13H11.D humanized IgG4 (S228P) kappa (antibody, V domains shown)
VH: B2 VH
VL: B2 VL with D30S, D31N, D32Y, T56P

KD relative to parental chimera [1]: 0.9 fold
B6: h13H11.H humanized IgG4 (S228P) kappa (antibody, V domains shown)
VH: B2 VH with G63D, T65K
VL: B2 VL with D30S, D31N, D32Y, T56P

KD relative to parental chimera [1]: 1 fold
KD relative to parental chimera [2]: 2.6 fold
B7: h13H11.A humanized IgG4 (S228P) kappa (antibody, V domains shown)
VH: B2 VH
VL: B2 VL with D1E, T56P, S67Y

KD relative to parental chimera [1]: 1.1 fold
KD relative to parental chimera [2]: 1.8 fold
B8: h13H11.F humanized IgG4 (S228P) kappa (antibody, V domains shown)
VH: B2 VH with G63D, T65K
VL: B2 VL with D1E, T56P, S67Y

KD relative to parental chimera [1]: 1.1 fold
KD relative to parental chimera [2]: 1.4 fold
B9: h13H11.E humanized IgG4 (S228P) kappa (antibody, V domains shown)
VH: B3 VH with F70I, F95Y
VL: B2 VL with D30S, D31N, D32Y, T56P

KD relative to parental chimera [1]: 0.6 fold
KD relative to parental chimera [2]: 0.6 fold
B10: h12A12.E humanized IgG4 (S228P) kappa (antibody, V domains shown)
VH: QVQMVQSGAEVKKPGASVKVSCKASGYTFTNYWMHWVRQAPGQGLEWMGYINPSTGYTDYNQKFQGRVTMTADKSTSTAYMELSSLRSEDTAVYYCIRGSDYYGRDYWGQGTTVTVSS
VL: DIQMTQSPSSLSASVGDRVTITCQASQDISNYLNWYQQKPGKAPKLLIYYTSRLHSGVPSRFSGSGSGTDYTFTISSLQPEDIATYYCRQGNTLPWTFGGGTKLEIKR

KD relative to parental chimera [1]: 0.4 fold
KD relative to parental chimera [2]: 0.4 fold
B11: h12A12.F humanized IgG4 (S228P) kappa (antibody, V domains shown)
VH: B1 VH with M48I, F70L, V76S
VL: B10 VL

KD relative to parental chimera [1]: 0.5 fold
KD relative to parental chimera [2]: 0.5 fold
B12: h12A12.C humanized IgG4 (S228P) kappa (antibody, V domains shown)
VH: B1 VH with M48I, F70L, V76S
VL: B10 VL with P44L, S56T

KD relative to parental chimera [1]: 0.7 fold
KD relative to parental chimera [2]: 0.6 fold
B13: h12A12.B humanized IgG4 (S228P) kappa (antibody, V domains shown)
VH: B10 VH
VL: B10 VL with P44L, S56T

KD relative to parental chimera [1]: 1.1 fold
KD relative to parental chimera [2]: 0.7 fold
B14: h12A12.G humanized IgG4 (S228P) kappa (antibody, V domains shown)
VH: B10 VH with M4L, K74T, A79V
VL: B10 VL

KD relative to parental chimera [1]: 1 fold
KD relative to parental chimera [2]: 0.7 fold
B15: h12A12.A humanized IgG4 (S228P) kappa (antibody, V domains shown)
VH: B10 VH
VL: B10 VL with P44L, Y87F

KD relative to parental chimera [1]: 1 fold
KD relative to parental chimera [2]: 0.8 fold
B16: h12A12.H humanized IgG4 (S228P) kappa (antibody, V domains shown)
VH: B1 VH with M4L, K74T
VL: B10 VL

KD relative to parental chimera [1]: 0.7 fold
KD relative to parental chimera [2]: 0.7 fold
B17: h14C05.B humanized IgG4 (S228P) kappa (antibody, V domains shown)
VH: QVQLVQSGSELKKPGASVKVSCKASGYTFTNYGMNWVRQAPGQGLEWMGSINTYTGEATYADGFTGRFVFSLDTSVNTAYLQISSLKAEDTAVYYCARGDYYGRGTWFAYWGQGTLVTVSS
VL: ETQVTQSPSSLSASVGDRVTITCRASQDVSTAVAWYQQKPGKAPKLLIYSASYRYPGVPSRFSGSGSGTDFTLTISSLQPEDFATYYCQQDYSSPWTFGGGTKLEIKR

KD relative to parental chimera [1]: 0.6 fold
KD relative to parental chimera [2]: 0.6 fold
B18: h14C05.C humanized IgG4 (S228P) kappa (antibody, V domains shown)
VH: QVQLVQSGAEVKKPGASVKVSCKASGYTFTNYGMNWVRQAPGQGLEWMGSINTYTGEATYADKFQGRVTMTLDTSTNTAYMELSSLRSEDTAVYYCARGDYYGRGTWFAYWGQGTLVTVSS
VL: B17 VL

KD relative to parental chimera [1]: 0.5 fold
KD relative to parental chimera [2]: 0.6 fold
B19: h14C05.D humanized IgG4 (S228P) kappa (antibody, V domains shown)
VH: B17 VH
VL: ETVVTQSPATLSLSPGERATLSCRASQDVSTAVAWYQQKPGQAPRLLIYSASYRYPGIPARFSGSGSGTDFTLTISSLEPEDFAVYYCQQDYSSPWTFGGGTKLEIKR

KD relative to parental chimera [1]: 0.9 fold
KD relative to parental chimera [2]: 1 fold
B20: h14C05.H humanized IgG4 (S228P) kappa (antibody, V domains shown)
VH: B18 VH with D62Q, N77S, A79V
VL: B17 VL

KD relative to parental chimera [1]: 0.7 fold
KD relative to parental chimera [2]: 0.6 fold
B21: h14C05.F humanized IgG4 (S228P) kappa (antibody, V domains shown)
VH: B17 VH with G63D, T65K
VL: B17 VL

KD relative to parental chimera [1]: 0.7 fold
KD relative to parental chimera [2]: 0.8 fold
B22: h14C05.G humanized IgG4 (S228P) kappa (antibody, V domains shown)
VH: B17 VH with D62Q, N77S
VL: B17 VL

KD relative to parental chimera [1]: 0.7 fold
KD relative to parental chimera [2]: 0.8 fold
B23: h14C05.A humanized IgG4 (S228P) kappa (antibody, V domains shown)
VH: B17 VH with Q1E, Q3M, V76A, Y95F
VL: B17 VL

KD relative to parental chimera [1]: 1.2 fold
KD relative to parental chimera [2]: 1.1 fold
B24: h14D12.A humanized IgG4 (S228P) kappa (antibody, V domains shown)
VH: QIQLVQSGSELKKPGASVKVSCKASGYTFTNYGMNWVRQAPGQGLEWMGLINTYTGEPTYADGFTGRFVFSLDTSASTAYLQISSLKAEDTAVYFCARERIYGYLHYFDYWGQGTTVTVSS
VL: DVVMTQSPDSLAVSLGERATINCKASQSVDYDGDSYMNWYQQKPGQPPKLLIYAASNLESGVPDRFSGSGSGTDFTLTISSLQAEDVAVYYCQQSNEDPRTFGGGTKLEIKR

KD relative to parental chimera [1]: 1.3 fold
KD relative to parental chimera [2]: 1 fold
B25: h14D12.B humanized IgG4 (S228P) kappa (antibody, V domains shown)
VH: QIQLVQSGAEVKKPGASVKVSCKASGYTFTNYGMNWVRQAPGQGLEWMGLINTYTGEPTYADKFQGRVTMTLDTSTSTAYMELSSLRSEDTAVYYCARERIYGYLHYFDYWGQGTTVTVSS
VL: B24 VL

KD relative to parental chimera [1]: 1.5 fold
KD relative to parental chimera [2]: 1.4 fold
B26: h14D12.C humanized IgG4 (S228P) kappa (antibody, V domains shown)
VH: B25 VH with M70F, T76A, Y95F
VL: B24 VL with L58R

KD relative to parental chimera [1]: 0.3 fold
KD relative to parental chimera [2]: 0.5 fold
B27: h14C05.E humanized IgG4 (S228P) kappa (antibody, V domains shown)
VH: B18 VH
VL: B19 VL
